Assay results as given in PMC11033462.

How the values were obtained:
[1] = molecular target: PLAA p.Ile609Thr, Myc-tagged (human) (UniProt Q9Y263); experiment: co-IP; Myc-PLAA overexpressed in HEK293T, captured from cleared lysate on Myc-beads (4°C, 2 h), eluate probed by western blot (anti-VCP, anti-SAKS1, anti-MYC); p97 band divided by the Myc-PLAA band
[2] = molecular target: PLAA p.Leu795Met, Myc-tagged (human) (UniProt Q9Y263); experiment: as above
[3] = molecular target: PLAA p.Ile609Thr, Myc-tagged (human) (UniProt Q9Y263); experiment: affinity purification with mass spectrometry; Myc-PLAA overexpressed in HEK293T, captured from cleared lysate on Myc-beads (20 mM HEPES pH 7.5, 100 mM NaCl, 0.2% n-dodecyl-β-D-maltoside, 4°C, 2 h), eluted with 10 M urea, LC-MS/MS; cut off 5-fold enrichment over untransfected controls; protein abundance as a ratio to PLAA
[4] = molecular target: PLAA p.Leu795Met, Myc-tagged (human) (UniProt Q9Y263); experiment: as above

Q: “VCP/p97 (from UniProt P55072 1-806) (natural protein)” was tested. Which percent decrease of p97 in the IP (ratio to PLAA) against WT PLAA [1] did it give?
A: 80%

Q: And the percent decrease of p97 in the IP (ratio to PLAA) against WT PLAA [2]?
A: 50%

Q: What about the percent decrease of p97 in the IP (ratio to PLAA) against WT PLAA [3] of the same substance?
A: 50%

Q: What about the percent decrease of p97 in the IP (ratio to PLAA) against WT PLAA [4] of the same substance?
A: 20%
